Publication PMC2680043, “Characterization of a Novel Small Molecule Subtype Specific Estrogen-Related Receptor α Antagonist in MCF-7 Breast Cancer Cells” (PLoS ONE, 2009)

Columns and labels:
Experiment in all cases: pull-down; biotinylated coactivator RID bound to streptavidin beaded agarose; in vitro translated [35S]-labeled ERRα added in 1x TBS with 10 µM Compound A, 4 hours at 4°C; SDS gel, phosphorimaging; compared with the DMSO sample
Details in all cases: one partner purified
[1] = molecular target: T1, AIB1 receptor interaction domain (RID), aa 557-773, biotinylated (UniProt Q9Y6Q9 557-773, biotinylated (sites not given))
T1 construct: also called AIB1 RID; SRC-3
T1 sequence (looked up): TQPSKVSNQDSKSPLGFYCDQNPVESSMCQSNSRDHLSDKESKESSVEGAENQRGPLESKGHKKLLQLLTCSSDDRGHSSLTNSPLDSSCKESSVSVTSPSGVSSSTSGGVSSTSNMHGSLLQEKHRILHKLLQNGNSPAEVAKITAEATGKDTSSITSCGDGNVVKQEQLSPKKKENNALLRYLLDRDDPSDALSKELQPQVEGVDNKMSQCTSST

[2] = molecular target: T2, GRIP-1 receptor interaction domain (RID), aa 565-798, biotinylated (UniProt Q61026 565-798, biotinylated (sites not given))
T2 construct: also called GRIP-1 RID; SRC-2
T2 sequence (looked up): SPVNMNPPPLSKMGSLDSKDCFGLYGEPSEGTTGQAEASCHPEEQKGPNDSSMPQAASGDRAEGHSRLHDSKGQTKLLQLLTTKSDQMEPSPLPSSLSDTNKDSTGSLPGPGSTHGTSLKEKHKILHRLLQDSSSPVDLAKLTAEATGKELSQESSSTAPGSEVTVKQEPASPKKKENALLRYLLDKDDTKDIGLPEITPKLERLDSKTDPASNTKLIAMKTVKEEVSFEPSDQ

[3] = molecular target: T3, PGC-1α receptor interaction domain (RID), aa 1-338, biotinylated (UniProt Q9UBK2 1-338, biotinylated (sites not given))
T3 construct: also called PGC-1α RID; PPARGC1A
T3 sequence (looked up): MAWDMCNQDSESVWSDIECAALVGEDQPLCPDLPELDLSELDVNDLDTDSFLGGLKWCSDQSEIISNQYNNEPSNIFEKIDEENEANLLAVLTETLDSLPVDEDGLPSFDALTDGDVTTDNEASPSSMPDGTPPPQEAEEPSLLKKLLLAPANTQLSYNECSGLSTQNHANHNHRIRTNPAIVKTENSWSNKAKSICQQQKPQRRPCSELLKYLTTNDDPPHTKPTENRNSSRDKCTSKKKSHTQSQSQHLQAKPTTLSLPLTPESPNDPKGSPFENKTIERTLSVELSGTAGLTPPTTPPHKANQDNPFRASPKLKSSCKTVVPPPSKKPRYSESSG

percent reduction of the interaction with 10 µM Compound A against vehicle (DMSO) [1]: 35%
percent reduction of the interaction with 10 µM Compound A against vehicle (DMSO) [2]: 29%
percent reduction of the interaction with 10 µM Compound A against vehicle (DMSO) [3]: 81%
B1: full-length human estrogen-related receptor α (ERRα), [35S]methionine-labeled (receptor, UniProt P11474 1-423, looked up)
chain: MSSQVVGIEPLYIKAEPASPDSPKGSSETETEPPVALAPGPAPTRCLPGHKEEEDGEGAGPGEQGGGKLVLSSLPKRLCLVCGDVASGYHYGVASCEACKAFFKRTIQGSIEYSCPASNECEITKRRRKACQACRFTKCLRVGMLKEGVRLDRVRGGRQKYKRRPEVDPLPFPGPFPAGPLAVAGGPRKTAAPVNALVSHLLVVEPEKLYAMPDPAGPDGHLPAVATLCDLFDREIVVTISWAKSIPGFSSLSLSDQMSVLQSVWMEVLVLGVAQRSLPLQDELAFAEDLVLDEEGARAAGLGELGAALLQLVRRLQALRLEREEYVLLKALALANSDSVHIEDAEAVEQLREALHEALLEYEAGRAGPGGGAERRRAGRLLLTLPLLRQTAGKVLAHFYGVKLEGKVPMHKLFLEMLEAMMD
modifications: [35S]methionine label
notes: estrogen-related receptor alpha, human, full length, amplified from human brain Marathon-ready cDNA and cloned into pcDNA3.1(+); No tag is named for this construct; also called hERRα; ESRRA; source: in vitro translated (TnT coupled reticulocyte lysate system, Promega), [35S]methionine added
